For data set [1], the target named is recombinant OspC type K (OspCK), residues 38 to 202 (B. burgdorferi strain 297). Description: crystal structure; OspCB alone (22°C, 100 mM sodium phosphate citrate pH 4.2, 41.9% PEG 600; 1.5 Å) and OspCK alone (4°C, 100 mM Tris pH 8.5, 40% PEG 400, 200 mM LiSO4; 1.9 Å); P2_(1).
Data set [2] deals with recombinant OspC type B (OspCB), residues 38 to 202 (B. burgdorferi strain ZS7) (UniProt Q44977). The data set is described as above.
For data set [3], the target named is T1, biotinylated recombinant OspC type A (OspCA) (Borreliella burgdorferi strain B31, …, UniProt Q07337, biotinylated (site not stated)).
T1 construct: Outer surface protein C type A, B. burgdorferi strain B31, residues 38 to 201; also called biotinylated OspCA; biotin-tagged recombinant OspC type A; not shown: deca-histidine, N-terminal, cleaved; SUMO, N-terminal, cleaved
The data set can be described thus: ELISA; capture ELISA: B5 IgG coated at 1 μg/mL in PBS; biotinylated OspC types A, B, K diluted 2-fold from 20 μg/mL; detected with avidin-HRP. The following applies: both partners purified.

Data set [4] concerns the target T2, biotinylated recombinant OspC type B (OspCB) (Borreliella burgdorferi strain ZS7, …, UniProt Q44977, biotinylated (site not stated)).
T2 construct: Outer surface protein C type B, B. burgdorferi strain ZS7, residues 38 to 202; also called biotinylated OspC type B; biotin-tagged recombinant OspC type B; not shown: deca-histidine, N-terminal, cleaved
Described as above. The following applies: both partners purified.

In data set [5] the target is native OspC type A (OspCA) on the surface of viable B. burgdorferi strain B313 (B. burgdorferi (endogenous in strain B313)) (UniProt Q07337). Description: flow cytometry on cells; 5 x 10^6 live B. burgdorferi B313 cells incubated with 10 μg/mL chimeric B5 IgG1 at 37°C for 1 h in BSK-II; goat anti-human IgG-Alexa 647; BD FACSCalibur.
Data set [6] deals with T1, biotinylated recombinant OspC type A …. Description: BLI; biotinylated OspCA (3 μg/mL) captured on streptavidin biosensors; MAb B5 100 to 1.56 nM, 5 min association, 30 min dissociation; PBS with 2% BSA; 1:2 bivalent analyte model; apparent; Octet RED96e. Particulars: both partners purified.
Data set [7] addresses T3, recombinant OspC type A (OspCA), residues 38 to 201 (B. burgdorferi strain B31, UniProt Q07337).
T3 construct: Outer surface protein C type A, B. burgdorferi strain B31, residues 38 to 201; Homodimer; also called rOspC type A; outer surface protein C; not shown: deca-histidine, N-terminal, cleaved; SUMO, N-terminal, cleaved
The data set can be described thus: crystal structure; B5 Fab complexed with OspCA 1:1, 10 mg/mL; sitting drop, 22°C, 100 mM sodium cacodylate pH 6.5, 5% PEG 8K, 40% MPD; 2.7 Å, P2_(1)2_(1)2. The following applies: both partners purified.

Data set [8] deals with the molecule itself. Described as above.

Bounds are passed on as bounds.

As to “recombinant OspC type K (OspCK), residues 38 to 202 (domain or fragment)”, the stoichiometry N in data set [1] was 2.
For the molecule “recombinant OspC type B (OspCB), residues 38 to 202 (from UniProt Q44977 38-202) (domain or fragment)”, the stoichiometry N in data set [2] came out at 2.

B1: chimeric B5 IgG1 (mouse B5 VH and VL on human IgG1 Fc and kappa light chain) (antibody, V domains shown)
VH: EVQLEESGPEQKKPGETVMMSCKASGYTFTDHSMHWVKQAPGKGLKWMGWINTETGEPTCADDFKGRFALSLETSSRTAFLQINNLKNEDTAIYFCIGRWGYYVYWGQGTTLVVSS
VL: DIQMTQSPASLSVSVGESVTIICRASENINSNLAWYQQKQGKPPQLLVYAATNLAGGVPSRFSGSGSGTQYSLKINSLQSEDFGTYYCQHVWGSPWTFGGGTKLEIK
notes: mouse B5 VH, as the VH of the heavy chain of m1; human IgG1 heavy chain constant region from the 'human IgG1 Fc' expression vector; mouse B5 VL, as the VL of the light chain of m1; human kappa light chain constant region from the expression vector; IgG1, kappa; also called chimeric derivative of B5; source: Expi293 cells, transfected, purified; copies: 2 + 2
Consider B1, for which the binding result in data set [3] is listed as “binds”; in data set [4] it was “no binding (tested: 20 μg/mL)”. This molecule also had an MFI in data set [5] of more than 3200.

B2: B5 IgG (as used for BLI and HX-MS; mouse IgG2a or chimeric IgG1 not told) (antibody, V domains shown)
VH: B1 VH
VL: B1 VL
notes: mouse B5 VH, as the VH of the heavy chain of m1; mouse B5 VL, as the VL of the light chain of m1; The methods say the chimeric IgG1 was used for dot blot and flow cytometry, which may mean that the mouse IgG2a was used here; also called MAb B5; B5 MAb; copies: 2 + 2
Regarding B2, the Kd in data set [6] is approximately 0.2 nM.

B3: B5 Fab fragment (Fab, V domains shown)
VH: B1 VH
VL: B1 VL
notes: VH and CH1 of mouse MAb B5; VL and CL of mouse MAb B5; Fab of the mouse IgG2a MAb B5; also called Fab B5; source: papain digestion of B5 IgG from the CDC; Fc depleted by protein A FPLC; purified by SEC (Superdex 200)
Regarding B3, the “stoichiometry N” value in data set [7] was 1.

B4: recombinant OspC type A (OspCA), residues 38 to 201 (domain or fragment, B. burgdorferi strain B31, UniProt Q07337 38-201, looked up)
chain: KGPNLTEISKKITDSNAVLLAVKEVEALLSSIDEIAAKAIGKKIHQNNGLDTENNHNGSLLAGAYAISTLIKQKLDGLKNEGLKEKIDAAKKCSETFTNKLKEKHTDLGKEGVTDADAKEAILKTNGTKTKGAEELGKLFESVEVLSKAAKEMLANSVKELTSP
notes: Outer surface protein C type A, B. burgdorferi strain B31, residues 38 to 201; Homodimer; also called rOspC type A; outer surface protein C; not shown: deca-histidine, N-terminal, cleaved; SUMO, N-terminal, cleaved
Regarding B4, the “stoichiometry N” value in data set [8] was 2.

(Values after article PMC10128040, “Structural Elucidation of a Protective B Cell Epitope on Outer Surface Protein C (OspC) of the Lyme Disease Spirochete, Borreliella burgdorferi” (mBio, 2023).)
